This note sets out measurements from US10765761B2, “Nucleic acid condensing peptide, nucleic acid condensing peptide set, nucleic acid delivery carrier, nucleic acid delivery method, cell production method, cell detection method and kit” (KABUSHIKI KAISHA TOSHIBA, priority 2016, dated 2020).

Data set [1] is described as follows: Average particle diameter and Zeta potential of liposome (zetasizer), Example 3. The format is physicochemical. How it is done:
COATSOME/SS-20 (Nippon Oil & Fats), DOPE, cholesterol and DMG-PEG were dissolved into ethanol at a molar ratio of 5:3:1:0.3, to obtain a lipid solution. Two sets of lipid solutions (0.5 ml) put into tubes were prepared, and 0.5 ml of peptide-nucleic-acid solutions (8) (mHP-1) and (16) (mHP-3) of Example 1 were dropped thereto while stirring each lipid solution, thereby forming liposomes. 9 ml of 10 mM-HEPES (pH: 5.3) was added to each of the liposome solutions to make a total amount of 10 ml (each liposome solution will be referred to as “Complex” hereinafter). Further, on an assumption that the liposome is taken into an organism, and liposome solutions (which will be referred to as “HEPES replacement”) in which ethanol, which is the solvent of Complex is substituted by HEPES were produced. The HEPES replacements were produced by condensing each solution of Complex to 1.5 ml with an ultrafiltration film for 300 kDa, adding 8.5 ml of 100 mM-HEPES (pH: 7.4) to each, performing ultrafiltration, thereafter substituting the solvent with 10 mM-HEPES (pH: 7.4), and finally condensing to 0.5 ml. Further, the HEPES replacements were filtered for sterilization with a filter with a pore diameter of 0.45 μm to prepare solutions (which will be referred to as “0.45 μm” hereinafter).
The “peptide-nucleic-acid solution”, “HEPES substituent” and “0.45 micrometer”, each of which contain the protamine, mHP-1 or mHP-3 prepared as above were examined in terms of average particle diameter of liposome, Zeta potential and amount of encapsulation of plasmid. The average particle diameter and Zeta potential were measured using a zetasizer. The amount of encapsulation of plasmid was measured using a Quant-iT PicoGreen (registered trademark) dsDNA assay kit.

Another data set deals with nucleic acid. The experiment in a line: Gel retardation assay: encapsulation of nucleic acid to liposome, Example 4. The settings on record: Complex with SDS 1% (liposome cleaved), 0.8% agarose gel (FIG. 9). The protocol:
The encapsulation of nucleic acid to liposome by the peptide of the embodiment was evaluated with a gel retardation assay.
As samples for the encapsulation evaluation, two sets of 8.0 μL of 10 mM-HEPES (pH: 7.0) were prepared and 1.0 μL of solutions of Complex respectively containing the mHP-1 or mHP-3 of Example 3 and sodium dodecyl sulfate (SDS, the final concentration: 1%) which cleavages liposome were added thereto, to prepare mixtures. In addition, as controls, a mixture to which 1.0 μL of a poly-glutamic-acid (PGA) solution was added in place of SDS, and a sample which contains neither SDS nor PGA were prepared. After the solutions were let stand still for 15 minutes at room temperature, 1.0 μL of an electrophoretic buffer (50%-sucrose solution) was added to each mixture, and they were mixed well, to carry out electrophoresis with a 0.8%-agarose gel. After the electrophoresis, the gel was immersed in an ethidium bromide solution to dye the nucleic acid and the gel was photographed while irradiating it with UV, thus detecting the nucleic acid.
FIG. 9 is a photograph taken by irradiating the agarose gel with UV.

In the next data set the test system is plasmid vector (pDNA). The experiment in a line: Gel retardation assay: condensability and dissociation, Example 2. The settings on record: 0.8% agarose gel, samples of any concentration (FIG. 6); for dissociation: PGA (+) sample; for condensability: PGA (-) sample. It is filed as binding. How it is done: The condensability of the nucleic acid by the peptide of the embodiment and the dissociation of the peptide and the nucleic acid were estimated by a gel retardation assay.
As samples for the condensability evaluation, 18 sets of 8.0 μL of 10 mM-HEPES (pH: 5.3) were prepared and 1.0 μL of the respective peptide-nucleic-acid solutions of Example 1 and […] were added thereto and mixed, thus preparing mixtures. As samples for the dissociation evaluation, 1.0 μL of peptide-nucleic-acid solutions and 1.0 μL of poly-glutamic-acid (PGA) solutions were added to 8.0 μL of 10 mM-HEPES solutions (pH: 5.3) and mixed, thereby preparing mixtures. After they were let stand still for 15 minutes at room temperature, 1.0 μL of an electrophoretic buffer (50%-sucrose solution) was added to each mixture, and they were mixed well, to carry out electrophoresis with a 0.8%-agarose gel. After the electrophoresis, the nucleic acid dyed with ethidium bromide was visualized by UV irradiation, and the nucleic acids condensed by the peptide and the nucleic acid dissociating with the peptide and moving into a gel were detected.
FIG. 6 is a photograph showing the agarose gel subjected to UV irradiation. Of two lanes indicated by the numbers of the respective samples, the left lane indicates the results of a PGA (−) sample (sample for the condensability evaluation) and the right lane for those of a PGA (+) sample (sample for the dissociation evaluation). When an integrated band with a large molecular weight, which strongly shines is observed in the left lane, it was evaluated as a high condensability. […] The mHP-1 and mHP-3 were excellent both in condensability and dissociation in the samples of any concentration. In particular, they were excellent in the peptide-nucleic-acid solutions (8) and (16).

Data set [2] in a line: Average particle diameter, polydispersity index and Zeta potential of liposome (Complex), Example 8. The format is physicochemical. How it is done: COATSOME/SS-20 (Nippon Oil & Fats), DOPE, cholesterol and DMG-PEG were dissolved into ethanol at a molar ratio of 5:3:1:0.3, to obtain a lipid solution. Five sets of 50 μL of lipid solutions put into tubes were prepared, and 50 μL of peptide-nucleic-acid solutions (1) to (4) and (7) of Example 6 were dropped thereto while stirring each lipid solution, thereby forming liposomes. 400 μL of 10 mM-HEPES (pH: 5.4) was added to each of the liposome solutions to make a total amount of 500 μL (this liposome solution will be referred to as “Complex” hereinafter).
The average particle diameter, polydispersity index and Zeta potential of liposome were investigated using the Complex. The average particle diameter, polydispersity index and Zeta potential were measured using a zetasizer.

“RQRQRGGRRRRRR (Nucleic acid condensing peptide) [mHP-3]”: in data set [1] (Peptide-nucleic acid solution), the “Average particle diameter (zAve)” value was found to be 113.4 nm and the Zeta potential was −43.90 mV. In data set [1] (liposome, 0.45 μm filtered), the “Average particle diameter (zAve)” value turned out to be 218.2 nm and the Zeta potential was −2.95 mV. Besides, in data set [1] (liposome, HEPES substitution), the “Average particle diameter (zAve)” value was found to be 240.5 nm and the Zeta potential is −3.39 mV. The “encapsulation of nucleic acid in liposome” value in the data set on nucleic acid is “encapsulated well”. For the same sequence, in the data set with plasmid vector (pDNA), the dissociation entry is recorded as “excellent” and the condensability entry is on record as “excellent”.

For the sequence “RQRQRYYRQRQRGGRRRRRR (Nucleic acid condensing peptide) [mHP-1]”, the “Average particle diameter (zAve)” value in data set [2] is 244.7 nm; in data set [1] (Peptide-nucleic acid solution), 121.4 nm; in data set [1] (liposome, 0.45 μm filtered), 222.0 nm; in data set [1] (liposome, HEPES substitution) it was 254.1 nm. For the same sequence, the “Polydispersity index (PDI)” value in data set [2] is recorded as 0.193. Moreover, the Zeta potential is recorded as 31.6 mV in data set [2]; −44.50 mV in data set [1] (Peptide-nucleic acid solution); −5.26 mV in data set [1] (liposome, 0.45 μm filtered); −11.30 mV in data set [1] (liposome, HEPES substitution). Moreover, in the data set with nucleic acid, the “encapsulation of nucleic acid in liposome” value is given as “encapsulated well”. Further, the dissociation result in the data set with plasmid vector (pDNA) was “excellent”. Also, in the data set on plasmid vector (pDNA), the condensability result is on record as “excellent”.
